# Measurements: patent US20240076389A1 (NATIONAL RESEARCH COUNCIL OF CANADA, published 2024)
# Where a chain is given by its changes, count along the chain named.
# B1: NRC-sdAb001 (VHH monomer) (VHH)
# VHH: QVKLEESGGGLVQAGGSLRLSCTASASISSFDIMGWYRQAPGKQRELVAAITTLDIANYRDSVKGRFTISRDNAKNTVYLQMDSLKPEDTARYHCAAFQSDQNYWGQGTQVTVSS
# notes: Llama VHH made as 6xHis- and Myc-tagged monomer in E. coli; not shown: 6xHis and Myc tags
# B2: hFc-F111-5E9-VC-MMAE (antibody, human IgG1, kappa, V domains shown)
# VH: QIQLVQSGPELKKPGETVKISCKASGYTFTKYGMNWVKQAPGKGLKWMGWINTYTGEPTYADDFKGRFAFSLETSASTAYLQINNLTTEDMVTYFCAKGGYYSNPIYPMDYWGQGTSVTVSS
# VL: DIQMTQTTSSLSASLGDRVTISCRASQDINNYLNWYQQKPDGTVKLLIYYISRLHSGVPSRFSGSGSGTDYSLTISNLELEDVATYFCQQGNTLPFTFGSGTKLEIKR
# modifications: VC-MMAE conjugate; attachment sites not given
# B3: NRC-sdAb005 (VHH monomer) (VHH)
# VHH: QVKLEESGGGLAQAGGSLRLSCAASGSISSINTIGWFRQAPGKQRELVAASDSGANRNYADSVKGRFTISRDNAKNTVYLQMNNLKPEDTAIYYCRAWGTGTISTMYWGQGTQVTVSS
# notes: Llama VHH monomer; not shown: 6xHis and Myc tags
# B4: mIgG-F149-4G4-DM1 (antibody, V domains shown)
# VH: QIQLVQSGPELKKPGETVKISCKTSGYTFTYYGINWVKQAPGKGLEWMGWINTYLGEPTYADDFKGRFAFSLETSASTAYLQINNLRDEDMATYFCTRGTMSYSFDYWGQGTALTVSS
# VL: QNVLTQSPAIMSASPGEEVTMTCRASSSVSSSYLHWYQQKSGASPKLWIYSTSKLASGVPARFSGSGSGTSYSLTISSVEAEDAATYYCHQYSGDPLTFGSGTKLEVK
# modifications: DM1 through SMCC linker on lysine residues of the antibody; sites not given
# B5: NRC-sdAb006 (VHH monomer) (VHH)
# VHH: QVKLEESGGGLVQAGASLRLSCVASESIFGFNTMGWYRQAPGNERELVASISNSKRTMYADSVKGRFTISRDNAKNTVNLQMNNLKPEDTAVYYCRAWGIITSATVYWGQGTQVTVSS
# notes: as for B3
# B6: mIgG-F155-3C7-DM1 (antibody, V domains shown)
# VH: QVQLQQPGTELVKPGASVKLSCKASGYIFTNFWINWVKQRPGQGLEWIGNIFPGSNSSNYNEKFKNKATLTVDKSSSTAYMHLSSLTSEDSAVYYCVRDYYGGSPDYWGQGTTLTVSS
# VL: DIVMSQSPSSLAVSAGEKVTMSCKSSQSLLNSKTRKNYLAWYQQKPGQSPKLLIYWASTRESGVPARFTGSGSGTDFTLTISSVQAEDLAIYYCKHSYNLWTFGGGTKLEIR
# modifications: DM1 through SMCC linker on lysine residues of the antibody; sites not given
# B7: hFc-F107-7H5-DM1 (antibody, human IgG1, kappa, V domains shown)
# VH: QVQLQQPGAELVKPGASVKLSCKASGYTFTSYWINWVKQRPGQGLEWIGNIYPDSSSTNYNEKFKSKATLTVDKSSTTAYIQFSSLTSEDSAVYYCTRDTYGGSPDYWGQGTTLTVSS
# VL: DIVMSQSPSSLAVSAGEKVTMSCKSSQSLLNSRTRKIYLAWYQQKPGQSPKLLIYWASTRQSGVPDRFTGSGSGTDFTLTISSVQAEDLAVYYCKQSYNLWTFGGGTKLEIKR
# modifications: DM1 through SMCC linker on lysine residues; sites not given
# B8: hFc-F107-8D12-DM1 (antibody, human IgG1, kappa, V domains shown)
# VH: QVQLQQPGAELVKPGASVQLSCKASGYTFISFWINWVKQRPGQGLEWMGNIFPGSSSTNYNEKFKSKATLTVDKSSSTAYMQLSSLTSEDSAVYFCARDYYGGSPDYWGQGTTLTVSS
# VL: B7 VL with K18R, S32T, I37N, Q61E
# modifications: DM1 through SMCC linker on lysine residues; sites not given
# B9: NRC-sdAb003 (VHH monomer) (VHH)
# VHH: QVQLVESGGGLVQAGGSLRLSCAASGVTLDYTAIGWFRQAPGKERELVAAITSGGNTDYAESAKGRFRISRDNSKNTIYLQMNSLKPEDTGVYYCAARRGGARGEYDYWDQGTQVTVSS
# notes: as for B3
# B10: hFC-F111-3C8 (antibody, human IgG1, kappa, V domains shown)
# VH: QVQLQQPGAELGKPGTSVKLSCKASGYTFTSYWMHWVKRVPGQGLEWIGNINPNSTSADYNEKFKRKATLTVDKSSSTAYMQLSTLTSEDSAVYYCTRPLMGPYWYFDVWGTGTTVTVSS
# VL: QIVLTQSPAIMSASPGEKVTISCSASSSVSYMYWYQQKPGSSPKPWIYRTSNLASGVPARFSGSGSGTSYSLTISSMEAEDAATYYCQQYHNYPPTFGGGTKLEIKR
# notes: Chimeric mAb, human IgG1 / human kappa constant regions; also called mAb F111-3C8; chimeric F111-3C8
# Assays:
# [1] = molecular target: T1, recombinant human AXL extracellular domain, C-terminally His8-tagged (rhAXL-ECD) (human, UniProt P30530 26-451); assay: SPR, AXL ECD immobilized, VHH monomer flowed, single-cycle kinetics
# T1 construct: Made in CHO cells; also called (rh)AXL-ECD His8; human AXL ECD
# T1 sequence: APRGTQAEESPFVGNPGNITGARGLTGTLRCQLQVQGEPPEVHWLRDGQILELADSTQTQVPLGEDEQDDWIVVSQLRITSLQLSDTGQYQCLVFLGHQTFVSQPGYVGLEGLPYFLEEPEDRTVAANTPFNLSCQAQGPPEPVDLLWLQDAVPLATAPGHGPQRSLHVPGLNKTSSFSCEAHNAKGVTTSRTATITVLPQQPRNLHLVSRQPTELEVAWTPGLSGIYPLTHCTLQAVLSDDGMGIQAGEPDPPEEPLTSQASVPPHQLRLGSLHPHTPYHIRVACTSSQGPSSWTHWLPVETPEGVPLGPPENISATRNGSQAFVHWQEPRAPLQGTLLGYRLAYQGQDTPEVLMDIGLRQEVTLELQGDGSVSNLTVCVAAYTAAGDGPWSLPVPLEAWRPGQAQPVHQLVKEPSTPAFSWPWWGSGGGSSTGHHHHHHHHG
# Procedure: (§1) For VH Hs and VHH-Fcs, binding to human and cynomolgus AXL ECD was assessed using either a Biacore T200 instrument or a Biacore 3000 instrument. Either human AXL ECD or anti-human Fc antibody was immobilized on a research-grade CM5 series S sensor chip (T200, rhAXL ECD) or a C1 sensor chip (3000, anti-human Fc) using amine coupling in acetate buffer. VHH-Fcs were captured on anti-human Fc surfaces. Either monomeric VHHs (for rhAXL ECD surfaces) or human and cyno AXL ECD (for VHH-Fc surfaces) were flowed over the surfaces at different concentration ranges. Running buffers were HBS-EP (3000) and HBS-EP+(T200). Flow rates were 10-40 ul/min. All binding studies were performed at 25° C. Surfaces were regenerated using 10 mM glycine, pH 1.5.
# [2] = molecular target: T2, human AXL expressed on the cell surface of tumor cell lines (human, UniProt P30530 26-894); assay: cell-based or functional assay
# T2 sequence (looked up): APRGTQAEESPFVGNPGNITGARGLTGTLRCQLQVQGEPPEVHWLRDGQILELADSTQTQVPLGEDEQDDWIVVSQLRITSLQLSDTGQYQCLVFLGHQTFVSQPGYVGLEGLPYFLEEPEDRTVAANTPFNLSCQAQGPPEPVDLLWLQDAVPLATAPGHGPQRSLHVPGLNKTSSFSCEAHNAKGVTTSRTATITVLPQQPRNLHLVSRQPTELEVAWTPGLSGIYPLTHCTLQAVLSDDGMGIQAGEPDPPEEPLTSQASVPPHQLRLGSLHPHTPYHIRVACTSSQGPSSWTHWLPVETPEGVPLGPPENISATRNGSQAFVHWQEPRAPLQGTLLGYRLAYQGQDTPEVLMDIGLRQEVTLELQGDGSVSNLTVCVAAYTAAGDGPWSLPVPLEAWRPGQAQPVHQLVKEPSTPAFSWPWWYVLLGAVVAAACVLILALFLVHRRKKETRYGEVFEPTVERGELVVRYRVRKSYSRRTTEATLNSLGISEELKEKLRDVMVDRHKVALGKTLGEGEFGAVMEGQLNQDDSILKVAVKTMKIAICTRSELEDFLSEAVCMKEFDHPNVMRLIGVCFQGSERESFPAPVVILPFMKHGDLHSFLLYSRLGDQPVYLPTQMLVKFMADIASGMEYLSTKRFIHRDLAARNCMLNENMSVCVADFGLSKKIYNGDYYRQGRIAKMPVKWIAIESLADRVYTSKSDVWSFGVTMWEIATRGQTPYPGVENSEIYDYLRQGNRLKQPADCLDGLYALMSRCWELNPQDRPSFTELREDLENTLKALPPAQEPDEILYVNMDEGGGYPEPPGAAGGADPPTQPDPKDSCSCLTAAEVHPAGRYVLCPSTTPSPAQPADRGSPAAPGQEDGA
# [3] = molecular target: T1, recombinant human AXL extracellular …; assay: SPR, AXL ECD immobilized, VHH monomer flowed, multi-cycle kinetics
# Procedure: as §1
# [4] = molecular target: T1, recombinant human AXL extracellular …; assay: SPR Biacore T200, mAb captured on anti-Fc, AXL ECD flowed, single-cycle kinetics
# Procedure: (§2) Surface plasmon resonance. For murine mAbs, binding to human and cynomolgus AXL ECD was assessed using a Biacore T200 instrument. Briefly, either anti-mouse or anti-human Fc antibody was immobilized on a research-grade CM5 series S sensor chip using amine coupling in acetate buffer. Murine or recombinant chimeric murine-human mAbs (mouse VH/VL; human constant regions) were captured, then recombinant human or cyno AXL ECD was flowed over the surface at different concentration ranges (0.1-500 nM) depending on the antibody. The running buffer was PBS/Tween-20 and the flow rate 100 uL/min. All binding studies were performed at 25° C. Surfaces were regenerated using 10 mM glycine, pH 1.5.
# [5] = molecular target: T3, recombinant cynomolgus AXL extracellular domain (cynomolgus); assay: as above
# T3 construct: range 1-449; also called Cyno AXL; cyno AXL ECD
# Procedure: as §2
binder,measurement,setting,value
B1,Kd,[1],4 nM
same,koff,[1],0.037 s⁻¹
same,kon,[1],8.5e+06 M⁻¹ s⁻¹
B2,"IC50 of growth inhibition (CellTiterGlo, 5 days) of NCI-H292 cells, -Gas6",[2],~1 nM
B3,Kd,[3],58 nM
same,koff,[3],0.0097 s⁻¹
same,kon,[3],170000 M⁻¹ s⁻¹
B4,"IC50 of growth inhibition (CellTiterGlo, 5 days) of NCI-H292 cells, -Gas6",[2],0.015 nM
same,"IC50 of growth inhibition of NCI-H292 cells, +Gas6 (2 µg/mL)",[2],0.013 nM
B5,Kd,[3],19 nM
same,koff,[3],0.0045 s⁻¹
same,kon,[3],240000 M⁻¹ s⁻¹
B6,"IC50 of growth inhibition (CellTiterGlo, 5 days) of NCI-H292 cells, -Gas6",[2],0.327 nM
same,"IC50 of growth inhibition of NCI-H292 cells, +Gas6 (2 µg/mL)",[2],3.9 nM
B7,"IC50 of growth inhibition (CellTiterGlo, 5 days) of NCI-H292 cells, -Gas6",[2],0.014 nM
same,"IC50 of growth inhibition of NCI-H292 cells, +Gas6 (2 µg/mL)",[2],0.098 nM
B8,"IC50 of growth inhibition (CellTiterGlo, 5 days) of NCI-H292 cells, -Gas6",[2],0.011 nM
same,"IC50 of growth inhibition of NCI-H292 cells, +Gas6 (2 µg/mL)",[2],0.296 nM
B9,Kd,[1],955 nM
same,koff,[1],0.0054 s⁻¹
same,kon,[1],8500 M⁻¹ s⁻¹
B10,Kd,[4],12 nM
same,koff,[4],0.001 s⁻¹
same,kon,[4],86000 M⁻¹ s⁻¹
same,Kd,[5],18 nM
same,koff,[5],0.0011 s⁻¹
same,kon,[5],60000 M⁻¹ s⁻¹
